Patent CN115850477A (SUZHOU SHALI BIOTECHNOLOGY CO LTD, dated 2023)
Each block holds one binder with its values, some of them ahead of it.

What was measured:
[1] = target: Human 4-1BB/TNFRSF9 Protein, His Tag (ACRO Biosystems) (human) (UniProt Q07011); assay: ELISA, coated 4-1BB-his, scFv clone supernatant
[2] = target: T1, Human 4-1BB/TNFRSF9 Protein, His Tag (ACRO Biosystems) (human, UniProt Q07011 24-186); assay: ELISA, coated Human 4-1BB His Tag 1 ug/ml, antibody from 10 ug/ml in two-fold dilutions
T1 construct: Bought from ACRO Biosystems; also called 4-1BB-his; not shown: His tag
T1 sequence (Q07011 24-186 limits assumed): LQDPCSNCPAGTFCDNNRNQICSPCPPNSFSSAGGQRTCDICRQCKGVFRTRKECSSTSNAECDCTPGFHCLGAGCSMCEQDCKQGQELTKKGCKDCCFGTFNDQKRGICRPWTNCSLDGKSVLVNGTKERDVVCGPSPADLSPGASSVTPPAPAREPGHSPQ

OD450 [1]: 1.12
B1: GT1C8 (scFv克隆, 初筛离心上清) (scFv, V domains shown)
VH: QMQLQESGPSLVKPSQTLSLTCSVTGDSITSGYWTWIRKFPGNRLEYMGFKSYSGSTYYNPSLKSRISITRDTSKNQYYLQLNSVTTEDTATYYCARSLLWLGAMDYWGQGTSVTVSS
VL: DIVMTQSHKFMSTSVGDRVSITCKASQDVGTAVAWYQQKPGQSPKLLIYWASTRHTGVPDRFTGSGSGTDFTLTISNVQSEDLADYFCQQYSSYPYTFGGGTKLEMKR

EC50 [2]: 0.102 µg/mL
B2: GT1C8 huIgG1型抗体 (antibody, V domains shown)
VH: B1 VH
VL: B1 VL
notes: GT1C8 is the only antibody described, but the name GT1C8 is never tied to these numbers in words; also called GT1C8的huIgG1抗体; GT1C8克隆hIgG1形式抗体
